Where no end group is shown, it is not given here. [ ]: non-standard residue; d: D form. pT = C[C@@H](OP(=O)(O)O)[C@H](N)C(=O)O
Target: recombinant protein phosphatase-1 catalytic subunit alpha (PP1cα) (UniProt P62136 1-330)
Assay: ITC

Sequence of recombinant protein phosphatase-1 catalytic subunit alpha (PP1cα) (P62136 whole entry): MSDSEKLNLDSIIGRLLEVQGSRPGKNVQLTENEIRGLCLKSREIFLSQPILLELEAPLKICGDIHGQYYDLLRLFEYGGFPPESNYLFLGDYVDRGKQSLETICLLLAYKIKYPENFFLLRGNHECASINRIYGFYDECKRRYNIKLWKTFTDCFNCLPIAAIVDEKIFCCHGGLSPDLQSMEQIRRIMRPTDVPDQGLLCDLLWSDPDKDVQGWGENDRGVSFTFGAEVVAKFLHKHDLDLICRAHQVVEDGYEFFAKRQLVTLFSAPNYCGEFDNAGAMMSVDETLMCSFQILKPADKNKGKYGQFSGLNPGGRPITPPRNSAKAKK

RQSRRS[pT]QGVTL showed a Ka of 2.57e+06 M⁻¹.

Source: publication PMC10003451 (2023)
